Values quoted from earlier work in patent US20230295339A1, “METHOD FOR TREATING A GD2-POSITIVE CANCER” (EUSA PHARMA (UK) LIMITED, priority 2020, published 2023).

Columns and labels:
[1] = for Kd: read-out: apparent kD for binding to GD2

B1: humanized 3F8: murine anti-GD2 antibody 3F8 humanized as naxitamab (antibody, chains of the INN, looked up, V domains shown)
VH: QVQLVESGPGVVQPGRSLRISCAVSGFSVTNYGVHWVRQPPGKGLEWLGVIWAGGITNYNSAFMSRLTISKDNSKNTVYLQMNSLRAEDTAMYYCASRGGHYGYALDYWGQGTLVTVSS
VL: EIVMTQTPATLSVSAGERVTITCKASQSVSNDVTWYQQKPGQAPRLLIYSASNRYSGVPARFSGSGYGTEFTFTISSVQSEDFAVYFCQQDYSSFGQGTKLEIK
binding preference for GD2 versus the related glycan structure GQ2 [1]: 200
binding preference for GD2 versus the related glycan structure GT2 [1]: 1500
Kd [1]: 7.7 nM

B2: dinutuximab beta: chimeric (murine/human) anti-GD2 IgG1 monoclonal antibody produced in CHO cells (antibody, chains of the INN, looked up, V domains shown)
VH: EVQLLQSGPELEKPGASVMISCKASGSSFTGYNMNWVRQNIGKSLEWIGAIDPYYGGTSYNQKFKGRATLTVDKSSSTAYMHLKSLTSEDSAVYYCVSGMEYWGQGTSVTVSS
VL: EIVMTQSPATLSVSPGERATLSCRSSQSLVHRNGNTYLHWYLQKPGQSPKLLIHKVSNRFSGVPDRFSGSGSGTDFTLKISRVEAEDLGVYFCSQSTHVPPLTFGAGTKLELK
tolerability of cumulative dose in maintenance treatment (10 days, 10 mg/m^2/day, 35-day intervals, 5 cycles, cumulative 500 mg/m^2 in 175 days): feasible and well-tolerated
toxicity in subsequent cycles (in vivo): decrease of dinutuximab beta toxicity in subsequent cycles

B3: Unituxin: chimeric anti-GD2 antibody ch14.18 produced in SP2/0 murine hybridoma cells (antibody, chains of the INN, looked up, V domains shown)
VH: EVQLLQSGPELEKPGASVMISCKASGSSFTGYNMNWVRQNIGKSLEWIGAIDPYYGGTSYNQKFKGRATLTVDKSSSTAYMHLKSLTSEDSAVYYCVSGMEYWGQGTSVTVSS
VL: EIVMTQSPATLSVSPGERATLSCRSSQSLVHRNGNTYLHWYLQKPGQSPKLLIHKVSNRFSGVPDRFSGSGSGTDFTLKISRVEAEDLGVYFCSQSTHVPPLTFGAGTKLELK
binding preference for GD2 versus the related glycan structure GQ2 [1]: 1000
binding preference for GD2 versus the related glycan structure GT2 [1]: > 5000
Kd [1]: 60 nM
